Measurements taken from PMC2194782.

Biological target: human plasmin (formed from plasminogen incubated with equimolar SAK or RGD-SAK) (human)

Row | Substance | kcat/Km of plasminogen activation by the preformed equimolar RGD-SAK-plasmin complex, monitored with S-2251 [M⁻¹ s⁻¹] | kcat/Km of plasminogen activation by the preformed equimolar SAK-plasmin complex, monitored with S-2251 [M⁻¹ s⁻¹]
1 | RGD-SAK (staphylokinase with K35 replaced by Arg) (from UniProt P68802 28-163) (natural protein) | 37000 | –
2 | staphylokinase (SAK) (from UniProt P68802 28-163) (natural protein) | – | 33000
